Assay [1] has as its target phosphorylation-deficient M1 muscarinic acetylcholine receptor (M1-PD), transfected in HEK293T cells (UniProt P12657).
Assay [2] deals with M1 muscarinic acetylcholine receptor, wild type (M1-WT), transfected in HEK293T cells (UniProt P12657).

On to “Gq (Gαq, BRET biosensor of Gq activation in HEK cells) (from UniProt P50148 1-359) (natural protein)”, for which the Emax of ACh-stimulated Gq activation (BRET biosensor, decrease in BRET, HEK cells) was 108 in assay [1] and 100 in assay [2].

As for “β-arrestin-2 (bystander BRET sensor in HEK293T cells) (from UniProt P32121 1-409) (natural protein)”, the Emax of ACh-stimulated β-arrestin-2 recruitment (bystander BRET: translocation of β-arrestin-2 to the cell membrane, HEK293T cells) in assay [1] turned out to be 40.7; in assay [2], 104.

The values above are taken from publication PMC8685681.
